{"source": "patent US20170233490A1", "about": "(Hoffmann-La Roche, published 2017)", "key": {"[1]": {"molecular_target": "T1, human HER3 Extracellular Domain (ECD) (human, UniProt P21860 20-643)", "T1 construct": "human recombinant, 68 kDa; 'closed' conformation without ligand; also called Her3 ECD; Her-3 ECD", "assay": "SPR Biacore 4000, antibody captured, analyte 150 nM, 25 C", "method": "(§1) Prior to their application the hybridoma culture supernatants were diluted 1:5 in instrument buffer. The diluted mixtures were injected at a flow rate of 30 μl/min for 2 min. The antibody capture level (CL) in response units was monitored. Immediately thereafter the respective antigen was injected at a flow rate of 30 μl/min for 3 min association time. Thereafter, the antibody-antigen complex dissociation signal was recorded for 5 min. The sensor was regenerated by injecting a 10 mM glycine-HCl solution (pH 1.7) for 2 min at a flow rate of 30 μl/min. The recorded signal shortly before the end of the injection of the antigen was denoted as binding late (BL) in response units. The recorded signal shortly before the end of the recording of the dissociation is denoted as stability late (SL) in response units. The dissociation rate constants were determined calculated The antibody-antigen complex stability in minutes was calculated with the following formula: ln(2)/60*kd. The Molar Ratio was calculated with the formula: MW (antibody)/MW(antigen)*BL (antigen)/CL (antibody).\n(§2) Binding Late (BL) represents the response units at the end of the analyte injection. The amount of antibody captured as a ligand on the sensor surface is measured as Capture Level (CL) in response units. Together with the information of the molecular weights of the tested analytes, the antibody and the analyte in solution, the Molar Ratio can be calculated. […] Then, the Molar Ratio is also an indicator for the valence mode of analyte binding. The maximum valence can be MR=2 for an antibody binding two analytes, one with each Fab valence."}, "TtSlyD-FKBP-Her3": {"molecular_target": "T2, TtSlyD-FKBP-Her3", "T2 construct": "N-terminal Met present or not; also called thermo SlyD-Her3; ttSlyD-Her3", "T2 chain": "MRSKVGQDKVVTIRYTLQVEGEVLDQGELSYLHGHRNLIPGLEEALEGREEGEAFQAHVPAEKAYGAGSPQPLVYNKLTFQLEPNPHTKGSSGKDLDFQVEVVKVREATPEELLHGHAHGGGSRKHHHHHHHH", "assay": "SPR Biacore 4000, antibody captured, analyte 150 nM, 25 C", "method": "as §1, §2"}, "[2]": {"molecular_target": "T1, human HER3 Extracellular Domain (ECD)", "assay": "SPR Biacore 3000, 37 C"}, "HER4 ECD-HRG complex [3]": {"molecular_target": "T3, HER4 ECD-HRG complex (human, UniProt Q15303 26-651)", "T3 construct": "HER4 ECD preincubated with a 5-fold molar excess of Heregulin", "T3 sequence 1": "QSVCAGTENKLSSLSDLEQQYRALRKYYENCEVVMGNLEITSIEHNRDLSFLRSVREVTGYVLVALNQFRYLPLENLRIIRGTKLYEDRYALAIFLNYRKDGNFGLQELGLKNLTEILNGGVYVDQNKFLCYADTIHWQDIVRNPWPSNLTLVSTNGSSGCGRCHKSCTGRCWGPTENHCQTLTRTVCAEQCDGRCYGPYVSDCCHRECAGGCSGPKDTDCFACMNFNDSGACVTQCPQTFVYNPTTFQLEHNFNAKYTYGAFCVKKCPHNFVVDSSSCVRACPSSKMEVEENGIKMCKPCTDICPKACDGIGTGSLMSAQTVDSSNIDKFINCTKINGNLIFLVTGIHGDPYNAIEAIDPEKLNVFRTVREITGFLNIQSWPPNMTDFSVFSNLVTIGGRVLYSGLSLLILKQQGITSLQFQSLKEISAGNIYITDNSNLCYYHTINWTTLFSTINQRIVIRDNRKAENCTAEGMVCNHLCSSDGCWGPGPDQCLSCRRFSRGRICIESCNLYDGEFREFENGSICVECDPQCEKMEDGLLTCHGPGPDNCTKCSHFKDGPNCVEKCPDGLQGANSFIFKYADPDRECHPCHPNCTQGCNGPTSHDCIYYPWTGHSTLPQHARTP", "T3 sequence 2": "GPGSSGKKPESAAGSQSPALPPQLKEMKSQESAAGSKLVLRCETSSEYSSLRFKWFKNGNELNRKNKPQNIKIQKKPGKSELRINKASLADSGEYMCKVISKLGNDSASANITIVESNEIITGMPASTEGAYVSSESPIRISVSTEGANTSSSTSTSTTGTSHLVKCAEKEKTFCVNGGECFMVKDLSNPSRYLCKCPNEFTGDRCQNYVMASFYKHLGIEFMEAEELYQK", "assay": "SPR Biacore 3000, 37 C"}, "HER3 ECD-HRG complex": {"molecular_target": "T4, HER3 ECD-HRG complex (human, UniProt P21860 20-643)", "T4 construct": "HER3 ECD preincubated with a 3- to 6-fold molar excess of Heregulin ('open' conformation); biotinylated Her3-ECD in the ribosome display; also called HER3-ECD/HRG1β", "assay": "SPR Biacore 3000, 37 C"}, "HER4 ECD-HRG complex [4]": {"molecular_target": "T3, HER4 ECD-HRG complex", "assay": "SPR Biacore T100, antibody captured, 25 C", "method": "A CM5 series sensor was mounted into the system and was normalized in HBS-ET buffer (10 mM HEPES pH 7.4, 150 mM NaCl, 3 mM EDTA, 0.005% w/v Tween 20) according to the manufacturer's instructions. The sample buffer was the system buffer supplemented with 1 mg/ml CMD (Carboxymethyldextran, Sigma #86524). The system operated at 25° C. 6500 RU RAM-Fcγ (relative units of Fcγ-fragment RamIgG, GE Healthcare) were immobilized according to the manufacturer's instructions using EDC/NHS chemistry on all four flow cells. The sensor was deactivated using 1M ethanolamine.\nThe binding activity of the respective antibody against the analytes was kinetically tested. Antibodies were captured at 35 nM concentration by a 1 min injection at 5 μl/min. The flow rate was set to 100 μl/min.\nAnalytes in solution were injected at different concentration steps of 0 nM, 1.1 nM, 3.7 nM, 11.1 nM, 33.1 nM and 90 nM for 3.5 min. The dissociation was monitored for 15 min. Where possible, kinetic signatures were evaluated according to a Langmuir fit."}}, "note": "Where “and” joins values, the source holds several entries; their conditions need not be identical. Equal entries are not always repeated."}
{"binder": "anti-HER3/HER4 antibody M-05-74 (antibody, V domains shown, murine monoclonal IgG from hybridoma (supernatant or purified), bivalent; also called M-074; M-5-74) VH: QVQLQQSGAELAKPGASVKMSCKTSGYTLTDYWIHWVKQRPGQGLEWIGYINPYTGYTESNQKFKDKATLTADKSSNTAYIQLSSLTSEDSAVYYCARPYYYGDYWGQGTTLTVSS VL: QIVLTQSPAIMSASPGERVTITCSASSSVSYMHWFQQKPGTSPKLLIYSTSNLASGVPARFSGSGSGTSYSLTISRMEAEDAATYYCQQRSSYPFTFGSGTKLEIK", "values": [{"measurement": "MR (Molar Ratio)", "setting": "[1]", "result": 0.5}, {"measurement": "koff", "setting": "[1]", "result": "< 1e-05", "unit": "s⁻¹"}, {"measurement": "MR (Molar Ratio)", "setting": "TtSlyD-FKBP-Her3", "result": 1.1}, {"measurement": "koff", "setting": "TtSlyD-FKBP-Her3", "result": 0.00012, "unit": "s⁻¹"}, {"measurement": "Kd", "setting": "[2]", "result": 4, "unit": "nM"}, {"measurement": "MR", "setting": "[2]", "result": 0.6}, {"measurement": "koff", "setting": "[2]", "result": "8.1e-05", "unit": "s⁻¹"}, {"measurement": "kon", "setting": "[2]", "result": 21000, "unit": "M⁻¹ s⁻¹"}, {"measurement": "t/2diss", "setting": "[2]", "result": 144, "unit": "min"}, {"measurement": "Kd", "setting": "HER4 ECD-HRG complex [3]", "result": 6, "unit": "nM"}, {"measurement": "MR", "setting": "HER4 ECD-HRG complex [3]", "result": 0.9}, {"measurement": "koff", "setting": "HER4 ECD-HRG complex [3]", "result": 0.0033, "unit": "s⁻¹"}, {"measurement": "kon", "setting": "HER4 ECD-HRG complex [3]", "result": 580000, "unit": "M⁻¹ s⁻¹"}, {"measurement": "t/2diss", "setting": "HER4 ECD-HRG complex [3]", "result": 4, "unit": "min"}, {"measurement": "Kd", "setting": "HER3 ECD-HRG complex", "result": 7, "unit": "nM"}, {"measurement": "MR", "setting": "HER3 ECD-HRG complex", "result": 0.7}, {"measurement": "koff", "setting": "HER3 ECD-HRG complex", "result": 0.00057, "unit": "s⁻¹"}, {"measurement": "kon", "setting": "HER3 ECD-HRG complex", "result": 79000, "unit": "M⁻¹ s⁻¹"}, {"measurement": "t/2diss", "setting": "HER3 ECD-HRG complex", "result": 20, "unit": "min"}, {"measurement": "BL (Binding Late)", "setting": "HER4 ECD-HRG complex [4]", "result": 349, "unit": "RU"}, {"measurement": "Kd", "setting": "HER4 ECD-HRG complex [4]", "result": "5.2 nM and 5 nM"}, {"measurement": "MR (Molar Ratio)", "setting": "HER4 ECD-HRG complex [4]", "result": 0.6}, {"measurement": "koff", "setting": "HER4 ECD-HRG complex [4]", "result": 0.00083, "unit": "s⁻¹"}, {"measurement": "kon", "setting": "HER4 ECD-HRG complex [4]", "result": 160000, "unit": "M⁻¹ s⁻¹"}]}
